Measured values: publication PMC5974017, “Increased glutarate production by blocking the glutaryl-CoA dehydrogenation pathway and a catabolic pathway involving L-2-hydroxyglutarate” (Nature Communications, 2018)

What was measured:
LhgO [1] = target: T1, LhgO (Pseudomonas putida, UniProt Q88IT9); assay: oxygen electrode, stimulation of oxidase activity; type: biochemical; details: enzyme preincubated with 50 μM FAD 1 h on ice; 5 mM L-2-HG, Tris-HCl pH 7.4, 30 °C
T1 construct: recombinant His-tagged from E. coli BL21(DE3), pETDuet-1; partly lost FAD on purification
T1 sequence (Q88IT9 1-416): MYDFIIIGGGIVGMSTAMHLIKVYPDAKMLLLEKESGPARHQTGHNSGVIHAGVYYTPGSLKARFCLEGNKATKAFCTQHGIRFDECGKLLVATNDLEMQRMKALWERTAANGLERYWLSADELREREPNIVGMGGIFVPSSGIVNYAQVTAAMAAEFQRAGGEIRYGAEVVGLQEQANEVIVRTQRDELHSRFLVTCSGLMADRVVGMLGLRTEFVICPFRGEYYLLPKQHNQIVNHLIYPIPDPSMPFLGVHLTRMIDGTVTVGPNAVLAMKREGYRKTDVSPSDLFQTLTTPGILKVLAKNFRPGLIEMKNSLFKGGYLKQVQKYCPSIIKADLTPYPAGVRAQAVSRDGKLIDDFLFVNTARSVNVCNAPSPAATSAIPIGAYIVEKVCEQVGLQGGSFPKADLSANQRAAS

LhgO [2] = target: T1, LhgO; assay: DCPIP reduction at […] nm; product 2-KG by HPLC and LC-MS/MS; type: biochemical; details: 50 mM Tris-HCl pH 7.4, 30 °C, 5 mM L-2-HG, 0.1 mM DCPIP
YgaF = target: T2, YgaF (Escherichia coli, UniProt P37339); assay: L-2-HG oxidation to 2-KG; oxygen electrode; type: biochemical; details: 50 mM Tris-HCl pH 7.4, 30 °C, 5 mM L-2-HG
T2 construct: gene lhgD; recombinant from E. coli BL21(DE3), pETDuet-1, HisTrap purified
T2 sequence (P37339 1-422): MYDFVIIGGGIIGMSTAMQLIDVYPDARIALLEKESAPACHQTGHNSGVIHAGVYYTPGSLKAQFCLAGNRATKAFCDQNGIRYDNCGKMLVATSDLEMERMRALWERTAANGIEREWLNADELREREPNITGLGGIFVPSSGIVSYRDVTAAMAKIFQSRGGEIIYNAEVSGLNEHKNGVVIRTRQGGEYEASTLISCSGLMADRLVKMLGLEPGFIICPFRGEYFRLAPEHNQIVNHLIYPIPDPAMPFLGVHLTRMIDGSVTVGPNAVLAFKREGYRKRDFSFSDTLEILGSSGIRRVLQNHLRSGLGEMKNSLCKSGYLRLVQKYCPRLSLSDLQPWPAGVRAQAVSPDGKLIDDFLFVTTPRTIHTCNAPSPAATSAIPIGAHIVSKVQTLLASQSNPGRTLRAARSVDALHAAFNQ

[3] = target: T3, LhgO homolog from Klebsiella pneumoniae ATCC25955 (Klebsiella pneumoniae, UniProt A6T539); assay: L-2-HG oxidation to 2-KG; type: biochemical
T3 construct: gene ygaF; recombinant from E. coli BL21(DE3), pETDuet-1, HisTrap purified
T3 sequence (A6T539 entry or part of it): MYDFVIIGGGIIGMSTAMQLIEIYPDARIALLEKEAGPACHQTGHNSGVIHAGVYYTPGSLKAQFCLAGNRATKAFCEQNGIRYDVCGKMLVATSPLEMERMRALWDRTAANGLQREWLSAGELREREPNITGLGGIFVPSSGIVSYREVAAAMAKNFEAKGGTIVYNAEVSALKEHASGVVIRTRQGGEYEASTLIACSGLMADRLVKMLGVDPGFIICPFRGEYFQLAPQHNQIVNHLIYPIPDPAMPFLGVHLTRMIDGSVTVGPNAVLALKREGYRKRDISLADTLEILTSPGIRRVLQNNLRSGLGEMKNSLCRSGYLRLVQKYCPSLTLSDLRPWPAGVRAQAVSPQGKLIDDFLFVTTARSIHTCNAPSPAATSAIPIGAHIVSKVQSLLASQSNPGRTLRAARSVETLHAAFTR

[4] = target: T4, CsiD homolog from Klebsiella pneumoniae ATCC25955 (Klebsiella pneumoniae, UniProt A6T540); assay: glutarate hydroxylation by purified homolog; type: biochemical; details: co-substrate 2-KG
T4 construct: recombinant from E. coli BL21(DE3), pETDuet-1, HisTrap purified
T4 sequence (A6T540 entry or part of it): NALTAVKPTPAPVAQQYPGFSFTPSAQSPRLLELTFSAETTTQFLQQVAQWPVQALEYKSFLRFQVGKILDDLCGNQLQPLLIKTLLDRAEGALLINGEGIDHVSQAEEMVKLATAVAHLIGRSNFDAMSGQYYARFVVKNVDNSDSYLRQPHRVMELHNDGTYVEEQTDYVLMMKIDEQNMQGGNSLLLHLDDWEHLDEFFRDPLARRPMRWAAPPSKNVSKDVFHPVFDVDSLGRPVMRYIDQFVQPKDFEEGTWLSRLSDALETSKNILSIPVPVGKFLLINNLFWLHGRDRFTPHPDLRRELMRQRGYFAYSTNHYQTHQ

[5] = target: T5, CsiD homolog from E. coli K-12 MG1655 (Escherichia coli, UniProt P76621); assay: glutarate hydroxylation by purified homolog; type: biochemical; details: co-substrate 2-KG
T5 construct: gene glaH; recombinant from E. coli BL21(DE3), pETDuet-1, HisTrap purified
T5 sequence (P76621 whole entry): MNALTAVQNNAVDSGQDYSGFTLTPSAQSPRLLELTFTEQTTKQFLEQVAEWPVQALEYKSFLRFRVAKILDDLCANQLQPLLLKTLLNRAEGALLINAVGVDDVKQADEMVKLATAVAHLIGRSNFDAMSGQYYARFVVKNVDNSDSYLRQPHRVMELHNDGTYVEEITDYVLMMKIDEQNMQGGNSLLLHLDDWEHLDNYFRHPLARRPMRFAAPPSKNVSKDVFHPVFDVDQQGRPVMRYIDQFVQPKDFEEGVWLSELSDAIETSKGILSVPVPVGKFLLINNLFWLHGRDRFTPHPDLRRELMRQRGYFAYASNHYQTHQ

O=C(O)CCC(=O)C(=O)O = assay: Clark-type oxygen electrode, double-reciprocal plot; type: biochemical, Pseudomonas putida; details: pH 6.7
Description: (§1) Clark-type oxygen electrode, double-reciprocal plot on CsiD

O=C(O)CCCC(=O)O = assay: as above; type: biochemical, Pseudomonas putida; details: pH 6.7
Description: as §1

[6] = target: the molecule itself; assay: SEC; Superdex 200 10/300 GL, eluent buffer C (50 mM sodium phosphate, 150 mM sodium chloride, pH 7.2), flow 0.5 mL min^-1; calibrated with thyroglobulin, ferritin, aldolase, conalbumin, ovalbumin and RNase A; native mass divided by the calculated monomer mass of 38.9 kDa

Cc1cc2nc3c(=O)[nH]c(=O)nc-3n(C[C@H](O)[C@H](O)[C@H](O)COP(=O)(O)OP(=O)(O)OC[C@H]3O[C@@H](n4cnc5c(N)ncnc54)[C@H](O)[C@@H]3O)c2cc1C [FAD]
oxygen electrode, stimulation of oxidase activity (LhgO [1]): The oxidase activity of LhgO can be stimulated by FAD

O=C(O)CC[C@H](O)C(=O)O [L-2-HG]
DCPIP reduction at 600 nm; product 2-KG by HPLC and LC-MS/MS (LhgO [2]): Robust activity was detected only when L-2-HG was used as the substrate
L-2-HG oxidation to 2-KG; oxygen electrode (YgaF): the homologs of LhgO can catalyze L-2-HG to produce 2-KG
L-2-HG oxidation to 2-KG [3]: the homologs of LhgO can catalyze L-2-HG to produce 2-KG

O=C(O)CCCC(=O)O [glutarate]
glutarate hydroxylation by purified homolog [4]: All three homologs of CsiD can catalyze the hydroxylation of glutarate
glutarate hydroxylation by purified homolog [5]: All three homologs of CsiD can catalyze the hydroxylation of glutarate

CsiD (Pseudomonas putida KT2440)
Km (O=C(O)CCC(=O)C(=O)O): 95.33 ± 0.97 µM
Vmax (O=C(O)CCC(=O)C(=O)O): 144 µmol/min/mg
kcat/Km (O=C(O)CCC(=O)C(=O)O): 7.49e+06 ± 120000 M⁻¹ s⁻¹
Km (O=C(O)CCCC(=O)O): 145.67 ± 1.53 µM
Vmax (O=C(O)CCCC(=O)O): 264 µmol/min/mg
kcat/Km (O=C(O)CCCC(=O)O): 6.93e+06 ± 30000 M⁻¹ s⁻¹

B1: CsiD of P. putida KT2440, glutarate hydroxylase (enzyme, Pseudomonas putida KT2440, UniProt Q88IU0 1-325, looked up)
chain: MNAFTQIDELVMPLPLEPQGYTIAPSKQSPRLLELTFARETVEAFVQAVAQWPVQALEYKSFLRFRVGEILDELCQGTLRPVLLNTILDRATGGMLITPIGLDDVSQAEDMVKFTTACAHLIGRSNYDAMSGQFYARFVVVNSDNSDSYLRQPHRVMELHNDGTFVNQITDYVLMLKIDEKNMEGGNSLLLHLDDWEQCEAFFRHPLARREMRWTAPPSKKVAEDVFHSVFDTDAEGRPTMRYIDQFVQPENYEEGIWLNALSESLEGSGKKVSVPVGVGSFLLINNLFWLHGRDRFTPHEGLRRELMRQRGYVAFPKPLYQRGQ
notes: CsiD (glutarate hydroxylase) of Pseudomonas putida KT2440, locus PP2909; gene amplified from genomic DNA with primers csiD-F/csiD-R and cloned EcoRI/HindIII into pETDuet-1; also called PP2909; Fe2+/2-KG-dependent glutarate hydroxylase; source: E. coli BL21(DE3) harboring pETDuet-csiD, purified (HisTrap HP column)
stoichiometry N [6]: 8
